This is an account of results in patent publication US20170298146A1 (MODIQUEST B V, published 2017).

Holding throughout (experiment): peptide ELISA, 2 ug/well
Assay [1] concerns the target T1, Histone 2A citrulline-containing peptide 1 (human, also: biotin label).
T1 construct: also called AAASGXGKQGGK
T1 peptide: AAASG[Cit]GKQGGK
As for the experimental part: (§1) Biotin and citrulline-containing peptides derived from histone 2A were immobilized on NEUTRAVIDIN®-coated 96-well ELISA plates (0.3 μg/well). CFC-1 and CFC-0 were coated at the same concentration and served as positive and negative controls respectively for specific anti-citrulline reactivity and as coating controls. Non-coated wells were used to test for aspecific binding of the antibodies. […] Detection of bound anti-citrulline antibodies was performed by incubating the wells with rabbit-anti-human-HRP (1:2000) for one hour at RT followed by incubation with TMB substrate. The resulting OD (y-axis) is a measure for antibody binding.
(§2) Ninety-six-well ELISA plates were coated with NEUTRAVIDIN® (0.1 μg/well) by overnight incubation at 4° C. Wells were washed five times with PBS-TWEEN®-20 (PBS-T) and blocked by a one-hour incubation with PBS-T+1% Bovine serum albumin (BSA) at room temperature (RT). After five more washes with PBS-T, wells were incubated for one hour at RT with histone-derived citrulline and biotin-containing peptides (0.3 μg/well). […] Wells were washed five times with PBS-T and incubated with rabbit-anti-human-HRP (1:2000) for one hour at RT followed by five washes with PBS-T and three wash steps with PBS. Wells were incubated for five minutes with TMB substrate before stopping the reaction with 2 M H₂SO₄. Optical density was measured by 450 nm and is a measure for the affinity of the antibodies used.

In assay [2] the target is T2, Histone 2A citrulline-containing peptide 5 (human, also: biotin label).
T2 peptide: VGRVH[Cit]LLRKGN
On the procedure: as §1, §2

The target in assay [3] is T3, Histone 2A citrulline-containing peptide 6 (human, also: biotin label).
T3 peptide: VHRLL[Cit]KGNYSE
As for the experimental part:
as §1, §2

In assay [4] the target is T4, Histone 2A citrulline-containing peptide 7 (human, also: biotin label).
T4 peptide: GNYSE[Cit]VGAGAP
On the procedure: as §1, §2

Assay [5] addresses T5, Histone 2A citrulline-containing peptide 8 (human, also: biotin label).
T5 peptide: AGNAA[Cit]DNKKTR
On the procedure:
as §1, §2

For assay [6], the target named is T6, Histone 2A citrulline-containing peptide 9 (human, also: biotin label).
T6 peptide: DNKKT[Cit]IIPRHL
As for the experimental part:
as §1, §2

The target of assay [7] is T7, Histone 2A citrulline-containing peptide 10 (human, also: biotin label).
T7 peptide: TRIIP[Cit]HLQLAI
On the procedure: as §1, §2

For assay [8], the target named is T8, Histone 2A citrulline-containing peptide 11 (human, also: biotin label).
T8 peptide: LQLAI[Cit]NDEELN
On the procedure: as §1, §2

The target in assay [9] is T9, Histone 2A citrulline-containing peptide 12 (human, also: biotin label).
T9 peptide: NKLLG[Cit]VTIAQG
As for the experimental part: as §1, §2

Non-standard residues stand in square brackets, D forms with d. No end group written: not given here. Cit = NC(=O)NCCC[C@H](N)C(=O)O

B1: RhmAb2.102 (antibody, human IgG1, lambda)
heavy: not shown
light: QSVLTQPPSMSAAPGQKVTISCSGSSSNIGNNYVSWYQQVPGTAPKLLIYDDNKRPSGIPGRFSGSKSATSATLGITGLQAGDEADYYCGSWDDNLSVVLFGGGTKLTVLGQPKAAPSVTLFPPSSEELQANKATLVCLISDFYPGAVTVAWKADSSPVKAGVETTTPSKQSNNKYAASSYLSLTPEQWKSHRSYSCQVTHEGSTVEKTVAPTECS
notes: Human IgG1 lambda; also called Rhm2.102
For the molecule B1, the OD in assay [1] came out at 3.05 OD; in assay [2], 0.111 OD; in [3] it was 0.752 OD; in assay [4], 0.059 OD; in [5], 0.06 OD; in [6], 0.063 OD. Also, the OD in [7] is 0.07 OD; in assay [8] it was 0.067 OD; in assay [9], 0.067 OD.
